Measured values published in US20240391959A1 (Bicycle, published 2024).
Starred links: 1 amine or outer side, 2 acyl side, 3 side chain; linkers in the order of their positions; H or OH if unused. Positions of bridges follow the written chain, without caps; N, C: chain ends. No end group written: not given here. TATB = O=C(C[*:1])N1CN(C(=O)C[*:2])CN(C(=O)C[*:3])C1

Key:
[1] = biological target: T1, Recombinant cynomolgus transferrin receptor 1 (TfR1), His6-tagged, a.a. 89-760 (cynomolgus, UniProt H9EXL1 89-760 (rhesus entry)); assay: SPR, TfR1 on chip; Table 2, geomean of n = 2
T1 construct: range 89-760; Bought, ACRO Biosystems TFR-C524a; also called Cyno TfR1; Cynomolgus TfR1; not shown: His6 tag
T1 sequence (chain, as listed by the source): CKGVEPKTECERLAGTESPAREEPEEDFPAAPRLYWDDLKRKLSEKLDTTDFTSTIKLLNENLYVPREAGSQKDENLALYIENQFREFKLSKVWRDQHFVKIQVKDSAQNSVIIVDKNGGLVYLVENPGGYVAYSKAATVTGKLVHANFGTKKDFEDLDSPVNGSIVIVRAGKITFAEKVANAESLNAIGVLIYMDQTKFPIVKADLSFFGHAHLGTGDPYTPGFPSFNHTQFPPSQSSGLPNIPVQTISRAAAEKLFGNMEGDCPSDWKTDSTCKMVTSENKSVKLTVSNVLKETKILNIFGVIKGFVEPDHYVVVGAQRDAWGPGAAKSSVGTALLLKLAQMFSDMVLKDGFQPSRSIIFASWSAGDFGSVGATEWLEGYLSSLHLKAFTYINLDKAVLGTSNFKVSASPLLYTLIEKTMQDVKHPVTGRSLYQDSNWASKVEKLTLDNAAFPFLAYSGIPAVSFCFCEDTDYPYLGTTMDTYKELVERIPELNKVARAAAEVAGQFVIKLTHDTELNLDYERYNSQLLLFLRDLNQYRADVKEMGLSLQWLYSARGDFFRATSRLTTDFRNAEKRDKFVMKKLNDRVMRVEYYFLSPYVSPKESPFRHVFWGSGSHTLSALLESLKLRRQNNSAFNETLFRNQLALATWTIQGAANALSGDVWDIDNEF

[2] = biological target: T2, Recombinant human transferrin receptor 1 (TfR1), His6-tagged, a.a. 89-760 (human, UniProt P02786 89-760); assay: SPR, TfR1 on chip; Table 2, geomean of n = 5
T2 construct: range 89-760; SPR used ACRO Biosystems CD1-H5243 (His6, a.a. 89-760); also called Human TfR1; CD71; not shown: His6 tag
T2 sequence (P02786 89-760 limits assumed): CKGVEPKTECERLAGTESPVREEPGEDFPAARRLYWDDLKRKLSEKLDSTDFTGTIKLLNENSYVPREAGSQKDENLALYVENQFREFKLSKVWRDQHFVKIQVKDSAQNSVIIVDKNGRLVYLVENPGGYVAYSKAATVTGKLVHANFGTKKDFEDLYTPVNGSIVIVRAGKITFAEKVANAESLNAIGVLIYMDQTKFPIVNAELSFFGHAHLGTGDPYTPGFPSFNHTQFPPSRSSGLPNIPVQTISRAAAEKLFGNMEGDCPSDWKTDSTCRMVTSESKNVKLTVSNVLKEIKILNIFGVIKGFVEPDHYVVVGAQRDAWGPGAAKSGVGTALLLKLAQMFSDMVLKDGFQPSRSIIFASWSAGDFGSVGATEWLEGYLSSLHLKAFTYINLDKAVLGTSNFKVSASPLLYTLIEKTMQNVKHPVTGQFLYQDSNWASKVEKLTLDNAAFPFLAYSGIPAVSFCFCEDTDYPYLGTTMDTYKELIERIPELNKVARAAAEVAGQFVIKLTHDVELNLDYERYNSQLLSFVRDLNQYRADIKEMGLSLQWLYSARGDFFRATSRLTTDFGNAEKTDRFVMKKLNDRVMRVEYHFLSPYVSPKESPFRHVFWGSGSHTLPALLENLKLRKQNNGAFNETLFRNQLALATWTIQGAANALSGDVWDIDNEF

Binder	Kd [1] [µM]	Kd [2] [µM]
ACPPDSWQGCISYCA (Cys Ci, Cii, Ciii on TATB scaffold) [BCY13989]	3.44	–
ACSPDAHLGCISYCA (linker 2-10-14 via TATB) [BCY15468]	–	0.0378
